From patent publication US20030175703
Where two headings read alike, the source gives them in different places.

Columns and labels:
[1] = molecular target: coagulation factor IXa (FIXa) (UniProt P00740+P00740); settings: FIG. 20 legend gives >>5 uM
E2F [2] = system: E2F
E2F [3] = system: E2F; remark: listed apart in the source
[4] = molecular target: coagulation factor Xa (FXa) (UniProt P00742+P00742)
Chain of coagulation factor Xa (FXa) (P00742 41-179, chain 1 of 2): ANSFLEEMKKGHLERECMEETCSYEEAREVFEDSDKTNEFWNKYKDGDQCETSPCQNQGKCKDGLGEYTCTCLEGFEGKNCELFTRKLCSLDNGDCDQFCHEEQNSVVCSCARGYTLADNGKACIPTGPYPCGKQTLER
Chain of coagulation factor Xa (FXa) (P00742 235-488, chain 2 of 2): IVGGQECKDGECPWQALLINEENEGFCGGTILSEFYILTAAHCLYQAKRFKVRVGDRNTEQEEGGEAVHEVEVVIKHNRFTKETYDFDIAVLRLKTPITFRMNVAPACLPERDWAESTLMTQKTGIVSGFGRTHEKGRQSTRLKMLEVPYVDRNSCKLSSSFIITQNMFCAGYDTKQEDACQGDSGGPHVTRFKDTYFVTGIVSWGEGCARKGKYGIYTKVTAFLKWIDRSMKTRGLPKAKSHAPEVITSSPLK

Chain of coagulation factor IXa (FIXa) (P00740 47-191, chain 1 of 2): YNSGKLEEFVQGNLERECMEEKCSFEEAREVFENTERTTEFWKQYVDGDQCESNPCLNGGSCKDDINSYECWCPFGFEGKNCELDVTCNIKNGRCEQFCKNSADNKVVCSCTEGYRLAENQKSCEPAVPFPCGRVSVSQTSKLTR
Chain of coagulation factor IXa (FIXa) (P00740 227-461, chain 2 of 2): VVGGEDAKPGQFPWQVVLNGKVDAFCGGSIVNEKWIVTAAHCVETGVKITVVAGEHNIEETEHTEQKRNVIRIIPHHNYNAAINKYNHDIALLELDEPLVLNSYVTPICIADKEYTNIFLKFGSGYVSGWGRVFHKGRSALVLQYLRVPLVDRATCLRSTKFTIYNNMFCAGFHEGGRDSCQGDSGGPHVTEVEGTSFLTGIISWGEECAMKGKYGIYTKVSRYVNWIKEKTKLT

Row | Substance | Kd (E2F [2]; random region only) | other results
1 | 9.3tM | – | Kd [1]: > 10000 nM
2 | AAUGGAAUCACUGAAGGCCCUCCGUAGCACCUAACACAGU [E2F aptamer 221] | 1.5 nM | –
3 | ACCUCGACCCUUCACCUGACUCUCCCAGAAGUUCUGUUUC [E2F aptamer 219] | 2 nM | –
4 | AUCCCCGCCGUAAGCCGUCCUGAUGGACACCACACGCCGC [E2F aptamer 226] | – | Kd (E2F [2]; random region only, table and listing differ near 5' end): 2 nM
5 | CAAGCGCUGAAACCAAUGCACCCCACCCCACACUGGUGUAC [E2F aptamer 204] | 1.25 nM | –
6 | CAAGCGUAUACCCUACCCACACUGAGCUACAUUGCGCUGA [E2F aptamer 213] | 8 nM | –
7 | CACUGAACGAAUGGCAACCGCCAAACCCUACCCACACUGG [E2F aptamer 212] | – | Kd (E2F [2]; listed as assignment inferred): 0.2 nM
8 | CAGAUUACCCUACCCACACUGCGUGCGGACAACCAUUGGC [E2F aptamer 201] | 0.4 nM | –
9 | CCACCCGAAGCAAAUCAAGCCCGACGGCGCUCGGACCAAC [E2F aptamer 217] | 15 nM | –
10 | CGAACGAACUGUGGACCCUACCCACACUGGGCCAAGCGAU [E2F aptamer 207] | 0.4 nM | –
11 | CGUCACUCCGUCCCAGCCGACGAAGUCCGUAAUUCCUCCA [E2F aptamer 216] | 45 nM | –
12 | GCACUAAACUUCGAUUACCCCCCACCCACACUGGCUGCAC [E2F aptamer 200] | 4 nM | –
13 | GCAUCCUGCCAGCGGCGACGGACCUUCGCCCACAGGCCUC [E2F aptamer 222] | 2 nM | –
14 | GCCGAGAGUGAGUGACCACAACCCCGCCCACACUGGAAUA [E2F aptamer 214] | 1.5 nM | –
15 | GCUGCCGCGCCUGGACCCCACCCACAUAUGGGCCACACAC [E2F aptamer 189] | – | Kd (E2F [2]; random region only, listing prints T for U): 1.5 nM
16 | GGGAGAGAGGAAGAGGGAGGGAAAGCACACGAAGCCCCAGCAAAACCCCACAGGCAAACCCAGAGGCGAAGACGGACCCCCC [E2F 10-3 / 10-7 / 10-11 / 10-12] | – | Kd (E2F [3]; printed sequence appears to lack U residues (compare SEQ 223)): 1 nM
17 | GGGAGAGAGGAAGAGGGAGGGAAGGAACACGAAGGCCCCCGAGCACCAACACAGCAAACCCAGAGGCGAAGACGGACCCCCC [E2F 10-1 / 10-8] | – | Kd (E2F [3]; printed sequence appears to lack U residues (compare SEQ 221)): 1.5 nM
18 | GGGAGAGAGGAAGAGGGAGGGACCCCGCCGAAGCCGCCGAGGACACCACACCCGCCAAACCCAGAGGCGAAGACGGACCCCCC [E2F 10-6] | – | Kd (E2F [3]; printed sequence appears to lack U residues (compare SEQ 226)): 2 nM
19 | GGGAGAGAGGAAGAGGGAGGGAGAAACACAGAAGCCCGCGCGACACCCCACGCAAACCCAGAGGCGAAGACGGACCCCCC [E2F 10-4] | – | Kd (E2F [3]; printed sequence appears to lack U residues (compare SEQ 224)): 5 nM
20 | GGGAGAGAGGAAGAGGGAGGGCAAACCACAGACCCAACGCAGGAGCACCCACCCACACGGGACAGCAAACCCAGAGGCGAAGACGGACCCCCC [E2F 10-5] | – | Kd (E2F [3]; printed sequence appears to lack U residues (compare SEQ 225)): 2.5 nM
21 | GGGAGAGAGGAAGAGGGAGGGGCACCGCCAGCGGCGACGGACCCGCCCACAGGCCCCAAACCCAGAGGCGAAGACGGACCCCCC [E2F 10-2] | – | Kd (E2F [3]; printed sequence appears to lack U residues (compare SEQ 222)): 3 nM
22 | GGGAGAGAGGAAGAGGGAUGGGAAAAUACGCCANNCGAGAUUAUACUUGGCCCCGCUAAUACCAUAACCCAGAGGUCGAU [D6-6] | – | Kd [4]: 3.1 nM
23 | GGGAGAGAGGAAGAGGGAUGGGAGUCCGACUGGAGAACANGUACUCUAUAAGCACUUNCAUNCANCAUAACCCAGAGGUCGAU [E10-7] | – | Kd [4]: 69.5 nM
24 | GGGAGAGAGGAAGAGGGAUGGGCCAUUGCUNCCCUGAACANGGGCNCCACNCCGCCUNCACAGUCAUAACCCAGAGGUCGAU [E10-1] | – | Kd [4]: 51.7 nM
25 | GGGAGAGAGGAAGAGGGAUGGGNGAUUAGCCCNAGCGAGAUANUACUUGGCCCCGCUACNUCCAUAACCCAGAGGUCGAU [D7-8] | – | Kd [4]: 14.5 nM
26 | UAUGAAAUCACAGAAGCCCGCGUUCGACACCUCCACUGUU [E2F aptamer 224] | 3 nM | –
27 | UUAUAUAGCACACUGAAGCCCUCAGCAAAACCUCCACAGG [E2F aptamer 223] | 1.5 nM | –
28 | UUUCCUAUGGCGAUAACUUCAGCCACGCCGGCGCCCCGUG [E2F aptamer 215] | 30 nM | –
